Experimental data reported in publication PMC10007213.

Tests used:
[1] = target: Dendrorhynchus zhejiangensis ferritin (DzFer) (Dendrorhynchus zhejiangensis); test: native gel or EMSA; Native-PAGE, 6% gel, 4 °C, Tris-glycine pH 8.3; purified tag-free DzFer, also after incubation and dialysis at pH 4, 6, 8, 10, 12, and as Ag^+-DzFer and Cu^2+-DzFer; subunits to 24-mer cage
[2] = target: Dendrorhynchus zhejiangensis ferritin (DzFer) (Dendrorhynchus zhejiangensis); test: crystal structure; Cu^2+-DzFer crystallised (0.2 M sodium citrate, 0.1 M Tris pH 8.5, 30% PEG 400); space group I432; 2.26 Å
[3] = target: Dendrorhynchus zhejiangensis ferritin (DzFer) (Dendrorhynchus zhejiangensis); test: crystal structure; DzFer crystals (0.2 M ammonium sulfate, 0.1 M sodium acetate pH 4.6, 30% PEG MME 2000) soaked 1 min with 100 mM AgNO3; space group I432; 1.90 Å

Measured: stoichiometry N

Dendrorhynchus zhejiangensis ferritin (DzFer) (natural protein)
24: [1] | [2] | [3]
